Measured values taken from the supplement of paper PMC10567573.

B1: PTPN9 (parent)
chain: TQHLPRECLPENLGGYVKIDLATW

Variants of: B1
Experiment: protein stability index of a GFP-peptide fusion (GPS, HEK-293T) (PSI 1-6); higher = more stable
Details: c terminus: a fixed tail appended
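Also: lentivirally expressed fusions sorted by FACS into six bins by GFP to DsRed ratio, PSI derived from sequencing read proportions per bin multiplied by bin number.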

Row | Variant | protein stability index
1 | TQHLPRECLPENLGGFVKIDLATW | 1.66
2 | TQHLPRECLPENLGGRVKIDLATW | 2.44
3 | TQHLPRECLPENLGGEVKIDLATW | 3.37
4 | TQHLPRECLPENLGGLVKIDLATW | 1.98
5 | TQHLPRECLPENLGGWVKIDLATW | 1.5
6 | TQHLPRECLPENLGGGVKIDLATW | 2.87
7 | TQHLPRECLPENLGGDVKIDLATW | 3.39
8 | TQHLPRECLPENLGGPVKIDLATW | 3.04
9 | TQHLPRECLPENLGGTVKIDLATW | 3.02
10 | TQHLPRECLPENLGGNVKIDLATW | 3.17
11 | TQHLPRECLPENLGGMVKIDLATW | 2.35
12 | TQHLPRECLPENLGGVVKIDLATW | 2.35
13 | TQHLPRECLPENLGGIVKIDLATW | 2.29
14 | TQHLPRECLPENLGGCVKIDLATW | 2.48
15 | TQHLPRECLPENLGGAVKIDLATW | 3.01
16 | TQHLPRECLPENLGGQVKIDLATW | 2.67
17 | TQHLPRECLPENLGGHVKIDLATW | 2.41
18 | TQHLPRECLPENLGGSVKIDLATW | 2.62
19 | TQHLPRECLPENLGGKVKIDLATW | 3.1
20 | TQHLPRECLPENLCGYVKIDLATW | 1.55
21 | TQHLPRECLPENLEGYVKIDLATW | 2.15
22 | TQHLPRECLPENLHGYVKIDLATW | 1.91
23 | TQHLPRECLPENLTGYVKIDLATW | 1.46
24 | TQHLPRECLPENLRGYVKIDLATW | 2.04

Row | Variant | protein stability index
25 | TQHLPRECLPENLYGYVKIDLATW | 2.45
26 | TQHLPRECLPENLIGYVKIDLATW | 1.74
27 | TQHLPRECLPENLNGYVKIDLATW | 2.19
28 | TQHLPRECLPENLPGYVKIDLATW | 2.38
29 | TQHLPRECLPENLLGYVKIDLATW | 1.43
30 | TQHLPRECLPENLQGYVKIDLATW | 1.96
31 | TQHLPRECLPENLSGYVKIDLATW | 2.07
32 | TQHLPRECLPENLMGYVKIDLATW | 2.03
33 | TQHLPRECLPENLKGYVKIDLATW | 1.68
34 | TQHLPRECLPENLDGYVKIDLATW | 2.99
35 | TQHLPRECLPENLVGYVKIDLATW | 2.35
36 | TQHLPRECLPENLAGYVKIDLATW | 1.96
37 | TQHLPRECLPENLWGYVKIDLATW | 2.02
38 | TQHLPRECLPENLFGYVKIDLATW | 1.93
39 | TQHLPRECLPENLGGYVKQDLATW | 3.04
40 | TQHLPRECLPENLGGYVKNDLATW | 2.67
41 | TQHLPRECLPENLGGYVKEDLATW | 3.58
42 | TQHLPRECLPENLGGYVKVDLATW | 2.12
43 | TQHLPRECLPENLGGYVKADLATW | 2.86
44 | TQHLPRECLPENLGGYVKLDLATW | 2.06
45 | TQHLPRECLPENLGGYVKKDLATW | 3.08
46 | TQHLPRECLPENLGGYVKYDLATW | 2.46
47 | TQHLPRECLPENLGGYVKWDLATW | 2.46
48 | TQHLPRECLPENLGGYVKGDLATW | 3.3

Row | Variant | protein stability index
49 | TQHLPRECLPENLGGYVKDDLATW | 3.07
50 | TQHLPRECLPENLGGYVKTDLATW | 2.94
51 | TQHLPRECLPENLGGYVKMDLATW | 2.79
52 | TQHLPRECLPENLGGYVKRDLATW | 2.96
53 | TQHLPRECLPENLGGYVKFDLATW | 1.79
54 | TQHLPRECLPENLGGYVKPDLATW | 3.11
55 | TQHLPRECLPENLGGYVKHDLATW | 2.5
56 | TQHLPRECLPENLGGYVKCDLATW | 2.3
57 | TQHLPRECLPENLGGYVKSDLATW | 2.76
58 | TQHLPRECLPENFGGYVKIDLATW | 1.41
59 | TQHLPRECLPENWGGYVKIDLATW | 2.54
60 | TQHLPRECLPENIGGYVKIDLATW | 1.91
61 | TQHLPRECLPENYGGYVKIDLATW | 1.91
62 | TQHLPRECLPENRGGYVKIDLATW | 2.43
63 | TQHLPRECLPENAGGYVKIDLATW | 2.5
64 | TQHLPRECLPENHGGYVKIDLATW | 2.21
65 | TQHLPRECLPENGGGYVKIDLATW | 1.98
66 | TQHLPRECLPENQGGYVKIDLATW | 2.2
67 | TQHLPRECLPENPGGYVKIDLATW | 2.17
68 | TQHLPRECLPENKGGYVKIDLATW | 1.96
69 | TQHLPRECLPENNGGYVKIDLATW | 2.58
70 | TQHLPRECLPENSGGYVKIDLATW | 2.41
71 | TQHLPRECLPENMGGYVKIDLATW | 2.27
72 | TQHLPRECLPENDGGYVKIDLATW | 2.65

Row | Variant | protein stability index
73 | TQHLPRECLPENEGGYVKIDLATW | 3.46
74 | TQHLPRECLPENCGGYVKIDLATW | 1.55
75 | TQHLPRECLPENVGGYVKIDLATW | 2.17
76 | TQHLPRECLPENTGGYVKIDLATW | 2.28
77 | TQHLPRECLPENLGGYVYIDLATW | 1.91
78 | TQHLPRECLPENLGGYVNIDLATW | 2.18
79 | TQHLPRECLPENLGGYVEIDLATW | 1.93
80 | TQHLPRECLPENLGGYVCIDLATW | 1.49
81 | TQHLPRECLPENLGGYVVIDLATW | 3.3
82 | TQHLPRECLPENLGGYVQIDLATW | 1.97
83 | TQHLPRECLPENLGGYVTIDLATW | 1.91
84 | TQHLPRECLPENLGGYVPIDLATW | 2.19
85 | TQHLPRECLPENLGGYVFIDLATW | 3.63
86 | TQHLPRECLPENLGGYVGIDLATW | 1.93
87 | TQHLPRECLPENLGGYVHIDLATW | 1.79
88 | TQHLPRECLPENLGGYVDIDLATW | 3.51
89 | TQHLPRECLPENLGGYVMIDLATW | 1.73
90 | TQHLPRECLPENLGGYVAIDLATW | 2
91 | TQHLPRECLPENLGGYVWIDLATW | 2.43
92 | TQHLPRECLPENLGGYVRIDLATW | 1.4
93 | TQHLPRECLPENLGGYVIIDLATW | 2.12
94 | TQHLPRECLPENLGGYVLIDLATW | 2.52
95 | TQHLPRECLPENLGGYVSIDLATW | 1.97
96 | TQHLPRECLPENLGGYVKIDRATW | 2.97

Row | Variant | protein stability index
97 | TQHLPRECLPENLGGYVKIDCATW | 2.06
98 | TQHLPRECLPENLGGYVKIDFATW | 1.76
99 | TQHLPRECLPENLGGYVKIDEATW | 3.27
100 | TQHLPRECLPENLGGYVKIDGATW | 2.85
101 | TQHLPRECLPENLGGYVKIDWATW | 1.76
102 | TQHLPRECLPENLGGYVKIDNATW | 2.63
103 | TQHLPRECLPENLGGYVKIDDATW | 3.46
104 | TQHLPRECLPENLGGYVKIDAATW | 2.09
105 | TQHLPRECLPENLGGYVKIDKATW | 3.35
106 | TQHLPRECLPENLGGYVKIDSATW | 2.73
107 | TQHLPRECLPENLGGYVKIDPATW | 2.78
108 | TQHLPRECLPENLGGYVKIDVATW | 2.36
109 | TQHLPRECLPENLGGYVKIDTATW | 2.27
110 | TQHLPRECLPENLGGYVKIDQATW | 2.96
111 | TQHLPRECLPENLGGYVKIDHATW | 2.17
112 | TQHLPRECLPENLGGYVKIDIATW | 1.65
113 | TQHLPRECLPENLGGYVKIDMATW | 1.88
114 | TQHLPRECLPENLGGYEKIDLATW | 2.85
115 | TQHLPRECLPENLGGYSKIDLATW | 2.57
116 | TQHLPRECLPENLGGYNKIDLATW | 2.36
117 | TQHLPRECLPENLGGYLKIDLATW | 1.48
118 | TQHLPRECLPENLGGYAKIDLATW | 2.57
119 | TQHLPRECLPENLGGYCKIDLATW | 1.89
120 | TQHLPRECLPENLGGYHKIDLATW | 2.29

Row | Variant | protein stability index
121 | TQHLPRECLPENLGGYTKIDLATW | 2.36
122 | TQHLPRECLPENLGGYMKIDLATW | 2.01
123 | TQHLPRECLPENLGGYPKIDLATW | 2.2
124 | TQHLPRECLPENLGGYIKIDLATW | 2.24
125 | TQHLPRECLPENLGGYFKIDLATW | 1.77
126 | TQHLPRECLPENLGGYKKIDLATW | 3.12
127 | TQHLPRECLPENLGGYQKIDLATW | 2.5
128 | TQHLPRECLPENLGGYYKIDLATW | 1.95
129 | TQHLPRECLPENLGGYWKIDLATW | 1.89
130 | TQHLPRECLPENLGGYDKIDLATW | 3.24
131 | TQHLPRECLPENLGGYGKIDLATW | 2.57
132 | TQHLPRECLPENLGGYRKIDLATW | 2
133 | TQHLPRECLPENLGSYVKIDLATW | 1.92
134 | TQHLPRECLPENLGHYVKIDLATW | 1.76
135 | TQHLPRECLPENLGYYVKIDLATW | 2.16
136 | TQHLPRECLPENLGIYVKIDLATW | 2.16
137 | TQHLPRECLPENLGVYVKIDLATW | 1.62
138 | TQHLPRECLPENLGCYVKIDLATW | 2.36
139 | TQHLPRECLPENLGPYVKIDLATW | 2.63
140 | TQHLPRECLPENLGNYVKIDLATW | 1.93
141 | TQHLPRECLPENLGRYVKIDLATW | 2.11
142 | TQHLPRECLPENLGQYVKIDLATW | 1.38
143 | TQHLPRECLPENLGTYVKIDLATW | 1.35
144 | TQHLPRECLPENLGFYVKIDLATW | 2.44

Row | Variant | protein stability index
145 | TQHLPRECLPENLGWYVKIDLATW | 2.88
146 | TQHLPRECLPENLGEYVKIDLATW | 2.26
147 | TQHLPRECLPENLGDYVKIDLATW | 2.2
148 | TQHLPRECLPENLGLYVKIDLATW | 1.73
149 | TQHLPRECLPENLGAYVKIDLATW | 1.67
150 | TQHLPRECLPENLGMYVKIDLATW | 2.81
151 | TQHLPRECLPENLGKYVKIDLATW | 2.63
152 | TQHLPRECLPENLGGYVKIYLATW | 2.68
153 | TQHLPRECLPENLGGYVKIFLATW | 2.58
154 | TQHLPRECLPENLGGYVKIVLATW | 2.73
155 | TQHLPRECLPENLGGYVKIALATW | 2.07
156 | TQHLPRECLPENLGGYVKINLATW | 1.78
157 | TQHLPRECLPENLGGYVKIPLATW | 1.69
158 | TQHLPRECLPENLGGYVKILLATW | 1.66
159 | TQHLPRECLPENLGGYVKICLATW | 1.94
160 | TQHLPRECLPENLGGYVKIKLATW | 1.94
161 | TQHLPRECLPENLGGYVKIGLATW | 1.78
162 | TQHLPRECLPENLGGYVKIWLATW | 3.09
163 | TQHLPRECLPENLGGYVKIQLATW | 1.6
164 | TQHLPRECLPENLGGYVKIELATW | 1.67
165 | TQHLPRECLPENLGGYVKITLATW | 2.51
166 | TQHLPRECLPENLGGYVKIRLATW | 1.9
167 | TQHLPRECLPENLGGYVKIHLATW | 2.68
168 | TQHLPRECLPENLGGYVKISLATW | 1.92

Row | Variant | protein stability index
169 | TQHLPRECLPENLGGYVKIILATW | 2.01
170 | TQHLPRECLPENLGGYVKIMLATW | 1.69
171 | TQHLPRECLPEQLGGYVKIDLATW | 1.91
172 | TQHLPRECLPEELGGYVKIDLATW | 3.02
173 | TQHLPRECLPEILGGYVKIDLATW | 1.79
174 | TQHLPRECLPEPLGGYVKIDLATW | 1.49
175 | TQHLPRECLPEDLGGYVKIDLATW | 1.93
176 | TQHLPRECLPETLGGYVKIDLATW | 1.82
177 | TQHLPRECLPEMLGGYVKIDLATW | 1.96
178 | TQHLPRECLPERLGGYVKIDLATW | 1.53
179 | TQHLPRECLPEWLGGYVKIDLATW | 1.51
180 | TQHLPRECLPEFLGGYVKIDLATW | 1.55
181 | TQHLPRECLPESLGGYVKIDLATW | 2.21
182 | TQHLPRECLPEHLGGYVKIDLATW | 1.92
183 | TQHLPRECLPELLGGYVKIDLATW | 1.76
184 | TQHLPRECLPEVLGGYVKIDLATW | 2.03
185 | TQHLPRECLPEYLGGYVKIDLATW | 2.52
186 | TQHLPRECLPECLGGYVKIDLATW | 1.92
187 | TQHLPRECLPEKLGGYVKIDLATW | 1.8
188 | TQHLPRECLPEGLGGYVKIDLATW | 2
